In paper PMC9871032 (2023) one finds Kd data, which are given here for 4 molecules.

The target of experiment [1] is extracellular domain of IL-2Rβ (UniProt P14784). Nature of the experiment: BLI; biosensors bearing the extracellular domain of IL-2Rβ; samples in a series of 3-fold dilutions. On the technique in general: Biolayer interferometry detects binding as a change in optical thickness at a sensor tip.
For experiment [2], the target named is His-tagged ectodomain of human IL-2Rα (human) (UniProt P01589). Nature of the experiment: BLI; His-tagged IL-2Rα immobilised by amine coupling on AR2G biosensors; Octet RED96, 25 °C, D-PBS with 0.2% BSA and 0.05% Tween 20; two-fold dilutions (1.5-100 nM) of IL-2 and L72-FSY; dissociation 300 s; global 1:1 fit.
For another experiment, the target named is IL-2Rα (Homo sapiens) (UniProt P01589). To be noted: cited from earlier work.
Chain of IL-2Rα (Homo sapiens) (P01589 22-240): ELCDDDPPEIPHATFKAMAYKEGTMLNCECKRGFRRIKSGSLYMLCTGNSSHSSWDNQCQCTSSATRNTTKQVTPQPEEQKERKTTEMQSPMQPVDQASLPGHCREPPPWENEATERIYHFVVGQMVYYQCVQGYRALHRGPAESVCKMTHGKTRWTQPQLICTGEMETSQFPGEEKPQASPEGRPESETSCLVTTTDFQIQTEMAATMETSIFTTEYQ
The target in experiment [3] is dimeric IL-2 receptor (Homo sapiens) (UniProt P14784). To be noted: cited from earlier work.
Another experiment deals with L72-FSY-IL-2 (human, UniProt P60568 21-153, L72-FSY, fluorosulfate-L-tyrosine (FSY) at 72). Nature of the experiment: BLI.

By Kd is commonly meant the constant that tells how readily two partners part at equilibrium. As for “N-terminally PEGylated L72-FSY-IL-2 (from UniProt P60568 21-153) (ligand)”, the values for the Kd in experiment [1] and in experiment [2] were 743 nM and 45.1 nM, respectively. “L72-FSY-IL-2 (human IL-2 with fluorosulfate-L-tyrosine at position 72) (from UniProt P60568 21-153) (ligand)” gave a Kd in experiment [2] of 10.3 nM. Turning to IL-2 (from UniProt P60568), the Kd in the experiment with IL-2Rα (Homo sapiens) was 10 nM; in experiment [3], 1 nM.

B1: extracellular domain of the β subunit of IL-2R (receptor)
chain: AVNGTSQFTCFYNSRANISCVWSQDGALQDTSCQVHAWPDRRRWNQTCELLPVSQASWACNLILGAPDSQKLTTVDIVTLRVLCREGVRWRVMAIQDFKPFENLRLMAPISLQVVHVETHRCNISWEISQASHYFERHLEFEARTLSPGHTWEEAPLLTLKQKQEWICLETLTPDTQYEFQVRVKPLQGEFTTWSPWSQPLAFRTKPAALGKDT
Regarding B1, in the experiment with L72-FSY-IL-2, the Kd was found to be 70 nM.
